T1: CD96 extracellular region with His tag (CD96-His) (human, UniProt P40200 22-519)
T1 construct: also called CD96-ECD-His; Bio-CD96-His (biotin-labelled form)
T1 sequence: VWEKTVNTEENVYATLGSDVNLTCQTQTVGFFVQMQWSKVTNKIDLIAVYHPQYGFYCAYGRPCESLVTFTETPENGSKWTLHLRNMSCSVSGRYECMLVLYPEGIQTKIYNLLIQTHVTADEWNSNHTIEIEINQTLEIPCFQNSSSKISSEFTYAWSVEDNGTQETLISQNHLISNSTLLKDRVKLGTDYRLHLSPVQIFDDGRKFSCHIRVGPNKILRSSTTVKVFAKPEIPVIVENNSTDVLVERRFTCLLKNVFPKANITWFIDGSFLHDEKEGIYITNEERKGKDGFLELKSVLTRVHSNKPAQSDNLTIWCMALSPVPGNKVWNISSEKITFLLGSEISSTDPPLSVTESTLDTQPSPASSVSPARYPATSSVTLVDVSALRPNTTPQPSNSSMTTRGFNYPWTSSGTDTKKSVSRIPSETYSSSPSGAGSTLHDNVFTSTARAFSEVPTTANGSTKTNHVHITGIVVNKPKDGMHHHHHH

T2: Full-length human CD96 on CHO-S cells (human, UniProt P40200 22-585)
T2 construct: also called CD96-CHOs; hCD96-CHOs
T2 sequence: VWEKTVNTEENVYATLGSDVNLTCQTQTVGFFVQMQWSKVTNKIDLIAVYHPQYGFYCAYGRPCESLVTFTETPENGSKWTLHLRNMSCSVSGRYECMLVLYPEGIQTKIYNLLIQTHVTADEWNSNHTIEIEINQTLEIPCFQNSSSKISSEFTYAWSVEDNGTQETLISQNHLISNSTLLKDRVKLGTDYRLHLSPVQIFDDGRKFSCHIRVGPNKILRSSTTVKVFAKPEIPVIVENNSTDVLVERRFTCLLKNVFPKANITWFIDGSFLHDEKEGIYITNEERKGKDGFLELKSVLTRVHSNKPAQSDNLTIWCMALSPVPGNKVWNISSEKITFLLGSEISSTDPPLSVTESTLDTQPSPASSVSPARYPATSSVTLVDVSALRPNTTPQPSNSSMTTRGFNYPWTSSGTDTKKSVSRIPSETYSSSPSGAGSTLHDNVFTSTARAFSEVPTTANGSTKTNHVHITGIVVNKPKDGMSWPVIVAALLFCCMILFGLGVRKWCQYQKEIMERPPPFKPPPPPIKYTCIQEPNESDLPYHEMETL

B1: h1722-005 (antibody, V domains shown)
VH: EVQLVQSGAEVKKPGSSVKVSCKASGGTFSDYWMHWVRQAPGQGLEWMGMLHPNSGTTSFNEKFKIRVTITADKSTSTAYMELSSLRSEDTAVYYCARDYSGPFAYWGQGTLVTVSS
VL: DIQMTQSPSSLSASVGDRVTITCSASSSVNYIHWYQQKPGKAPKRWIYDTSKLASGVPSRFSGSGSGTDFTLTISSLQPEDFATYYCQQWRSNPLTFGQGTKLEIK
notes: Only variable regions are tied to this name
B2: h1719-003 (antibody, V domains shown)
VH: EVTLKESGPVLVKPTETLTLTCTVSGFSLSSYGVSWVRQPPGKGLEWLGVIWGDGNTNYHSVLISRLTISKDTSKSQVVLTLTNMDPVDTATYYCAKNNYYGSRYGYPMDYWGQGTTVTVSS
VL: DIQMTQSPSSVSASVGDRVTITCKATQDVGTAVAWYQQKPGKAPKLLIYWASTRHTGVPSRFSGSGSGTDFTLTISSLQPEDFATYYCQQYGSSVLTFGGGTKVEIK
notes: also called M719-003

Experiments:
[1] = molecular target: T1, CD96 extracellular region with His tag …; assay: SPR (Biacore), antibody captured, CD96-ECD-His as mobile phase
From the text: Protein A biosensor chip was used to capture antibodies to be tested, then CD96 antigen was flowed on the surface of the chip, and real time reaction signal was detected by Biacore to obtain the binding and dissociation curve. After the dissociation of each experimental cycle was completed, the biosensor chip was washed and regenerated with a glycine-hydrochloric acid regeneration solution (pH 1.5).

[2] = molecular target: T1, CD96 extracellular region with His tag …; assay: ELISA, CD96-His coated
Procedure: The binding capacity of the anti-CD96 antibody was tested by ELISA to determine the binding of the antibody to human CD96 protein. The His-tagged CD96 fusion protein was used to coat the microtiter plate, and the intensity of the signal after adding with the antibody was used for evaluating the binding activity of the antibody and CD96. The specific experimental method is as follows:
CD96-His with the sequence of SEQ ID NO: 4 prepared in Embodiment 1 was diluted to a concentration of 2 μg/ml with PBS buffer (Shanghai Yuanpei Biotechnology Co., Ltd. Cat No. B320), pH 7.4, added to a 96-well microtiter plate (Corning, Cat No. CLS3590-100EA) at a volume of 50 μl/well, and placed in an incubator at 37° C. for 2 hours. After discarding the liquid, 250 μl/well of 5% skim milk (BD, Cat No. 232100) blocking solution diluted with PBS was added, and the plate was incubated at 37° C. for 2.5 hours or at 4° C. overnight (16-18 hours) for blocking. After blocking, the blocking solution was discarded, and the plate was washed 4 times with PBST buffer (pH 7.4 PBS containing 0.05% tween-20). 50 μl/well of different concentrations of the antibodies to be tested (hybridoma purification antibody or humanized antibody) diluted with sample dilution was added, and the plate was incubated in an incubator at 37° C. for 1 hour. […] After washing the plate 4 times with PBST, 50 μl/well of TMB chromogenic substrate (KPL, Cat No. 52-00-03) was added, and the plate was incubated at room temperature for 5-15 minutes, followed by adding 50 μl/well of 1M H₂SO₄ to stop the reaction. The absorption value was read at 450 nm with a NOVOStar microplate reader, and the EC50 value of the binding of CD96 antibody to human CD96 was calculated (see Table 13).

[3] = molecular target: T2, Full-length human CD96 on CHO-S cells; assay: cell ELISA, fixed CD96-overexpressing CHO-S cells
Procedure: The binding capacity of the anti-CD96 antibody was tested by binding experiments of the antibody to human CD96 protein overexpressing CHO-S cells. The full-length CD96 plasmid was transfected into CHO-S cells by electrotransfection, and cells were then screened for two weeks under pressure for the detection of the expression of CD96. After the over-expressing cells were fixed at the bottom of the 96-well plate, the density of the signal after adding the antibody was used to judge the binding activity of the antibody to CD96 overexpressing CHO-S cells. The specific experimental method is as follows:
The cells were seeded at a density of 9×10⁴/100 μL/well in a 96-well plate and cultured overnight. After aspirating the supernatant, the plate was washed once with PBS, subsequently, 100 μl/well immunostaining fixation solution (Biyuntian, P0098) was added and fixed for one hour at room temperature, and the plate was washed three times with PBS. Once the liquid was discarded, 250 μl/well of 5% skim milk (BD, 232100) blocking solution diluted with PBS was added, and the plate was blocked in an incubator at 37° C. for 2.5 hours. After blocking, the blocking solution was discarded, the plate was washed 4 times with PBST buffer (pH 7.4 PBS containing 0.05% tween-20), followed by diluting 50 μl/well of different concentrations of the antibodies (hybridoma purification antibody or humanized antibody) to be tested the plate was incubated in an incubator at 37° C. for 2 hours. After incubation, the plate was wash 4 times with PBST. […] After washing the plate 4 times with PBST, 50 μl/well of TMB chromogenic substrate (KPL, Cat No. 52-00-03) was added, the plate was incubated at room temperature for 10-25 min, followed by adding 50 μl/well of 1M H₂SO₄ to stop the reaction. The absorption value was read at 450 nm with a NOVOStar microplate reader, and the EC50 value of the CD96 antibodies to CD96 overexpressing CHO-S cells was calculated (see FIG. 1 and Table 15).

[4] = molecular target: T1, CD96 extracellular region with His tag …; assay: blocking cell ELISA: antibody premixed with Bio-CD96-His (0.5 ug/mL), binding to fixed CD155-CHO cells
Procedure: CD155-CHO cells (constructed by Shanghai Hengrui) were seeded in 96-well culture plates at a density of 9×10⁴/100 μL/well and cultured overnight. After aspirating the supernatant, the plate was washed once with PBS, 100 μl/well of immunostaining fixation solution (Biyuntian, Cat No. P0098) was added and fixed for one hour at room temperature, and the plate was washed three times with PBS. After discarding the liquid, 250 μl/well of 5% skim milk (BD, Cat No. 232100) blocking solution diluted with PBS was added, and the plate was blocked in an incubator at 37° C. for 2.5 hours. After blocking, the blocking solution was discarded, subsequently, the plate was washed 4 times with PBST buffer (pH 7.4 PBS containing 0.05% tween-20). 50 μl/well of antigen-antibody pre-incubation solution (gradient concentrations of the hybridoma antibody to be tested and CD96-Fc at a final concentration of 0.5 μg/mL were premixed at 37° C. for 30 minutes, or gradient concentrations of humanized antibody samples and Bio-CD96-His at a final concentration of 0.5 μg/mL were premixed at 37° C. for 30 minutes) (Biotin-labeled kit, Dongren Chemical, Cat No. LK03) was added, and the plate was incubated in an incubator at 37° C. for 2 hours. After incubation, the reaction solution in the microtiter plate was discarded, the plate was washed 4 times with PBST, and 50 μl/well of HRP-labeled goat anti-human secondary antibody (Jackson Immuno Research, Cat No. 109-035-003) diluted with sample dilution or HRP-labeled streptavidin diluted with sample dilution (Sigma, Cat No. 52438) was added, followed by incubating at 37° C. for 1 hour. After washing the plate 4 times with PBST, 50 μl/well of TMB chromogenic substrate (KPL, Cat No. 52-00-03) was added, the plate was incubated at room temperature for 10-20 minutes, followed by adding 50 μl/well of 1M H₂SO₄ to stop the reaction. The absorption value was read at 450 nm with a NOVOStar microplate reader, and the EC50 value of the effect of CD96 antibody on blocking the binding between the antigens and CD155-CHO cells was calculated (see FIG. 2 and Table 16).

Binder	Kd [1]	EC50 [2]	EC50 [3]	IC50 [4]
B1	9.87 nM	0.072 nM	0.045 nM	
B2		0.085 nM	0.028 nM	0.096 nM

Reference: patent publication US20200347130A1 (JIANGSU HENGRUI MEDICINE, published 2020)
